# Results reported in the DeepSol protein solubility set.
# Assay: soluble on expression in E. coli; label from the status in PepcDB or PDB records
row,Sequence,soluble on expression in E. coli
1,MGRLDGKVIILTAAAQGIGQAAALAFAREGAKVIATDINESKLQELEKYPGIQTRVLDVTKKKQIDQFANEVERLDVLFNVAGFVHHGTVLDCEEKDWDFSMNLNVRSMYLMIKAFLPKMLAQKSGNIINMSSVASSVKGVVNRCVYSTTKAAVIGLTKSVAADFIQQGIRCNCVCPGTVDTPSLQERIQARGNPEEARNDFLKRQKTGRFATAEEIAMLCVYLASDESAYVTGNPVIIDGGWSLG,soluble
2,MGRPRYLAYTRQIAMKSWRKAVVGTQATVGDAIAAIESGSIQIALVLDDQNRLLGVVTDGDVRRGLLRGIPLTGLATDIMNRVPVSAPATLSRDDRLHLMRQKSIKQLPLVDEGGHLVVVETLDELLEPRHYANPVLIMAGGLGERLGALTRDVPKPMLNVGGRPLLETIVRNVVQQGFRNIYISVNYKAETIKDYFADGAAFGANIQYVHETERLGTAGALGLFPAPPDLPMIVTNGDILTTINYGALLDFHNGTPAEATMAVREHKVHVPYGVVSTSDGFLQAIREKPTESWFVSAGIYVIGSSVFGHVAPGVSIDMPTVLERVIAGKGRVAVYPIREYWLDIGRLEDFEQAHAEFHEVFPLEHHHHHH,soluble
3,MGRVAEKVIIIGNNFGNDKSAVTVLFTDNMEKENKAAVVGVDNTTIYCMAPRQAEGFNKITVKVNDQTVVADETFKYSVSENVSTIAGDFVQADGAGKDGSLAEATFGQMFGVACIDEQSGIVGQAWNNNSVRYISIDEDAVITIQSGPVVGKVAVSNDKTLAYGATINGANTVYVYKKSQAWVPSRLSDISSGTDVWAVALNGDNQWLYYVTANGRLGRIEVDNPTHNEILFEHNDFSGGPFAYIAYSAFEDCFYVTTDKNKILKVWVKEDGTHAYEQINQNNTGTTDGFLADEAKFQYLRGLTIDEDGNIFVCQGDNSHVIRKIAYDENMEKRYVTTVLGTSTVHGTDDGSPDIALFNGPQDISYDGNGGYWIAMRYEPALRKYSIELEHHHHHH,soluble
4,MGRWWRYKWITFHPSLTQHWLWYAYNTKTGGVLAYTFGPRNDETCRELLALLTPFCIGMVTSDDWGSYAREVPKEKHLTGKIFTQRIARNNRTLRTRIKRLARKTICFSRSVEIHEKVIGSFIEKHMFYLEHHHHHH,soluble
5,MGSDKIHHHHHHAAAPAFSALGDTASSQARHIATVFPGRMTGTPPEMLSADYLRQQFALMGYQSDVRSFNTRYIYTDSNQRKNWHNATGSTVIAAHEGKVRQQIIIMAHLDTYAPQSDKDVENNLGGLTLQGIDDNAMGLGVLLELAEHLKNVPTRYGIRFIATSGEEEGRLGAQNLLQRMSEAEKKNTLLVINLDNLVVGDKLYFNSGRSTPASVRKLTRDRALAIARSKGIAAYTNPGLNPAYPKGTSCCNDASVFDNAGIPVLSVEATNWSLGKKDGYQQRSKSASFPQGTSWHDVQLDNQQYIDHALPGRIEHRGREVVKVMLPLVKELAKVEKKS,not soluble
6,MGSDKIHHHHHHAACADNADLNEPAGSTTPPAQVLNATVKNLPGAAIIYYDLPDDQNLKYVRASYKVDNMVRTVNASFYTDSLVVEGFPTKGEYDIELYSVSYGEVVSSPLVVKVNPDTPPYQKVRGTLVSAETFGGIRVNFDNPEKAKLGLGVIKKQAEGIWTQVYMHYTEAKGGDFYVRGLDAVTTDFGIFVRDRWGHLSDTLYVTETPLYEEQCDKSLFRKMALPTDSYECHSWNEVTKGNDMTRLWDGITDADPCFQTKTTTVMPQWFTFDMGENYKLSRFVMVSRYYPGKYGNTFKAGHPKHFEIWGSINPNPDGSFDDSWVLLSEYESVKPSGGGVNDALTAEDQEAAKNGENFIIPDNAPAVRYIRFRTNNTWGNTRYMHLHELTFFGAKHN,not soluble
7,MGSDKIHHHHHHAAEKTVVNISKVDGMPWFNRMGEGVVQAGKEFNLNASQVGPSSTDAPQQVKIIEDLIARKVDAITIVPNDANVLEPVFKKARDAGIVVLTNESPGQPSANWDVEIIDNEKFAAEYVEHMAKRMGGKGGYVIYVGSLTVPQHNLWADLLVKYQKEHYPDMHEVTRRMPVAESVDDSRRTTLDLMKTYPDLKAVVSFGSNGPIGAGRAVKEKRAKNKVAVYGMMIPSQAASLIKSGDITEGITYDPATAGYALAAVASTLLNGKTIEPGFELKELGKAEVDSDKHIIRFHKVLLVNKDNIDSLY,not soluble
8,MGSDKIHHHHHHACSGQLDTIQEYLDAGETIYAAKMDSVDIRPGYNRVEVTGLLKYGMDTERCVIHWTPDNDSLVVPVKRIDPVDTFRVFIENLPEGTYQFEIVTYNKSGYRSISTSKGSKTYGDRYISSLRVRSLLSTEVEGENLLLNFSSEMAEALATKVFYLNSAGEKQEQEVARGDNQIKITDWKPRGAYEVKTYYIPEVNAVDTFSVSSTGVFPEKIVEMDKSTFREIILDNDIRLNAWGGALWKAWDNAYENTNYAHSDNTNPIVFPAWFTFDLGEKALLKRFDLFSVVRDDLNYNGGNMKSWEIWGREDEPANSSWDGWTKLITCNSFKPSGKPVGENTDEDNSYIAKGEKFDFPSGIPEVRYIRIKVLDSWSGQGYVQFSEFTFYKSE,not soluble
9,MGSDKIHHHHHHAEEQVYSESEVSTVLSKLEKEAISEAAAEQYTVVDRKEDAWGMKHLKLEKQTEGVTVDSDNVIIHLDRNGAVTSVTGNPVDQVVKIQSVDAIGEEGVKKIIASDNPETKDLVFLAIDKRVNNEGQLFYKVRVTSSPTGDPVSLVYKVNATDGTIMEKQDLTEHVGSEVTLKNSFQVAFNVPVEKSNTGIALHGTDNTGVYHAVVDGKNNYSIIQAPSLVALNQNAVDAYTHGKFVKTYYEDHFQRHSIDDRGMPILSVVDEQHPDAYDNAFWDGKAMRYGETSTPTGKTYASSLDVVGHEMTHGVTEHTAGLEYLGQSGALNESYSDLMGYIISGASNPEIGADTQSVDRKTGIRNLQTPSKHGQPETMAQYDDRARYKGTPYYDQGGVHYNSGIINRIGYTIIQNLGIEKAQTIFYSSLVNYLTPKAQFSDARDAMLAAAKVQYGDEAASVVSAAFNSAGIGAKEDIQVNQPSESVLVNE,not soluble
10,MGSDKIHHHHHHAGEKLVESAAAPRIINIINFIRQTDYRVENADSLLYETVCEQVKLVNKYDLPATFLLQYDALINPLYQDLLKSKLNAHSEIGAWWELTQPQIEAAGIKWRGEHSWVSHANIAFSTGYTKEERERLVDVYMAKFKEIFGTYPKSVGSWFIDAHTLGYMYDKYKIVASCNCKDQVGTDGYTLWGGYWNQAYYPSRVNAYMPAQTEEGQIPVPIFRMLGSDPIYQYDDGLGQERQGVISLEPVYEKAGMDRRWVDYFLESIVNQPCLAFNYAQAGQENSFTWSNMSKGLEMQIPILDSLRKENKIRVETLGESGAWFKECFKVTPPTAVTTLTDVRGEGNKTVWFNSRYYRANLLWERGTFRFRDIHLFDEGYKSAYMEKPGDGNQFLFYTLPVVDGFMWSEGLDRAGLRIVRLDKDGDKEELTLDHPVVTEIGKDTLVVSAEDSKGHPFKITFYETRFEVAALSKEADLSWALELKVAAGKELPFTVIEDKAVNASFDGFNYVITCKKGHIRKPESGSDYVFRILPSDKEIVINCTNTRLNCTHEK,not soluble
11,MGSDKIHHHHHHAGKQNEVELVAEKQLAFPLDEQTYYLSKSMFQFEENGKEYLHFENTQKSLYDIVIFDIENQQIAKRIPLHKTGPNGLPAVFGSRPSPDSQYILVAQNNISRLSSINSQGEIIRNYNFQTPEGRFTPLSFGSYYNAPAFIKDSCIFLRQEILKPDMKKEDWPRTHMFASQDLRTGEVKWIPIFYPPIFKEEYDNIAGGYGFSYDYNYKESRLVCGFFGYDSLMVTDDLKHIRWYNAKSRYLKSMKPKLGNSMEGINAIIKLNENPRYWHIMYDKYRNVYYRFAEMPYKLAPNESPYETPKGKEFSVIVLNADFEIIGETKFPGKKYFYKMSFVGREGLYISENNLENPQFDENKLVFTCFKIKNASPNK,not soluble
12,MGSDKIHHHHHHALSPETGSTSVAVMGRQLYEEMRLDQWVCFDAFMQGLRGSEKIDRKNKDILTLIDFSKPSTAERMVVLDIRQKRILYTSLVSHGKNSGGNYATSFSNENGSHKSSLGFYLTENTYQGRNGYSLILNGLEKGINDLAKQRAIVIHGASYSDPSVAASSGRLGRSFGCPALPVSVSKPIINTIKNGTLLFIYANDKNYLTQSSILSTQQENDIFHEKSYRKVL,not soluble
13,MGSDKIHHHHHHALSSIEKIQGKDRYETAAKIAQKQTYENVVLVNTDNTLADGLSASGLAGTVKAPILLSQRNSIPSDTEKMLKDVKKVYIIGTEDSIGKSVENELKQKGIEVKRIGGNDRIETSYLIAKEIASIKPIDKVFITNGYTGEADAMSASSVASRDGAPIILTNGKNVPFEKKEGVQCYALGSEEIISNDLVKKTNSVRLAGEDRFETNKKVIKHFYSSAKEFYLSKGYQLVDAVAGSSIAKNAPIVLVDGNSDKSVLRSADKITALGGIDEKTLEQCLSASSLDASAPTITVGNLNIYQGDKFDISKLNIVAKDSNGNDLTPELIGNINTDKVGKYKVTIKATDIGGKTTSISVEVNVLEYKTNDMNSSEFKRMVSSEMYSLVNSYRKEKGKEPLQVSENLQGMANYWSKYMADKGEFAHVINGKNAAEVFSGGIRSEENIAFVPLTTKSTYTTKDAREVANVIFTVWKKSDKYNENMLSSKFAYTGFGLYILPDGQVYATQEFLNK,not soluble
14,MGSDKIHHHHHHAPRTPPATDAWSGFRQLFELDPHYAHFANFLITSHPRPVREAIASLRAQLDQHPARCVEWDTQSEWKHEAEVREWAGRYLEVKPRQIALTGSTTEGLGMIYGGLRLNPQQEILTTEHEHYSTRNILAYRSQRDGTQVRKLRLFDDPAKVSDDQVLSTIAAAIKPQTRVLGMTWVHSGSGVKLPVGQIGALVHEANRNRDENDRILYVIDGVHGFGVEDMRFADLQCDYFIAGTHKWMFGPRGTGIICAASTELKHLTPTFATFSENEDFATTMTPGGYHAFEHRWALGKAFELHLQHGKAAIQARIHGLNDYLKERLAQHRAIELVTPRSPNHSAGFTFFRVKGQDVEAIAAHLNSQRIVVDAVDRDVGPVVRTAPGLLNTEAEIDRLVDVLGQRLRA,not soluble
15,MGSDKIHHHHHHAQPTDPSTTDSELTMLVGTYTSGNSKGIYTFRFNEETGESLPLSDAEVANPSYLIPSADGKFVYSVNEFSKDQAAVSAFAFDKEKGTLHLLNTQKTMGADPCYLTTNGKNIVTANYSGGSITVFPIGQDGALLPASDVIEFKGSGPDKERQTMPHLHCVRITPDGKYLLADDLGTDQIHKFNINPNANADNKEKFLTKGTPEAFKVAPGSGPRHLIFNSDGKFAYLINEIGGTVIAFRYADGMLDEIQTVAADTVNAQGSGDIHLSPDGKYLYASNRLKADGVAIFKVDETNGTLTKVGYQLTGIHPRNFIITPNGKYLLVACRDTNVIQIFERDQATGLLTDIKKDIKVDKPVCLKFVD,not soluble
16,MGSDKIHHHHHHAQQAPAPCGLVPSARQLEWYNREMIAFFHFGINTFEEYVNEGDGKASTAIFNPTALDCRQWMQTLKAAGIPAAILTAKHADGFCLWPSKYTDYSVKNAAWKNGKGDVVREFVDACEEYGLKAGIYLGPHDRHEHLSPLYTTERYKEYYAHQLGELMSDYGKIWETWWDGAGADELTTPVYRHWYKIVREKQPDCVIFGTKNSYPFADVRWMGNEAGEAGDPCWATTDSVAIRDEAQYYKGLNEGMLDGDAYIPAETDVSIRPSWFYHAEEDSRVKSVRELWDIYCTSVGRNSVLLLNFPPDRRGLIHSTDSLHAALLKQGIDETFSTNLLRGAKVKATNVRGAKYSPEKMLDNEKNTYFAGKDGEVKADIIFTLPKTIEFDCLMIEEVIELGHRTTKWSVEYTVDGKNWITIPEATDKQAIGHKWIVRLAPVKAKQVRLRIQDGKACPAIHTFGVYKQSPVFKL,not soluble
